# Experimental data taken from IntAct's records for PubMed 11956294.
# B1: Inducible T-cell costimulator (Homo sapiens), Q9Y6W8 (parent)
# chain: MKSGLWYFFLFCLRIKVLTGEINGSANYEMFIFHNGGVQILCKYPDIVQQFKMQLLKGGQILCDLTKTKGSGNTVSIKSLKFCHSQLSNNSVSFFLYNLDHSHANYYFCNLSIFDPPPFKVTLTGGYLHIYESQLCCQLKFWLPIGCAAFVVVCILGCILICWLTKKKYSSSVHDPNGEYMFMRAVNTAKKSRLTDVTL
# partner: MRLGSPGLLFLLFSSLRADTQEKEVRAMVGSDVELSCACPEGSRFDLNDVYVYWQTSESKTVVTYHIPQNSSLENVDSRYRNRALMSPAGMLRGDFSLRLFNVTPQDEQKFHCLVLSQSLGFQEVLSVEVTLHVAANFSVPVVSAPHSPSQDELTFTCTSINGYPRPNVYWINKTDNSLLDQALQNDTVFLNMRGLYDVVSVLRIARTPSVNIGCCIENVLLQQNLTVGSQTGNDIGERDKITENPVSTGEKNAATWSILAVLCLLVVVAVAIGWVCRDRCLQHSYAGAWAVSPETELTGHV
# Variants of: B1
# Details: with icosl_human ICOSLG
row,Variant,effect of a mutation on the interaction
1,Q49S,decreasing interaction strength
2,Q50S,decreasing interaction strength
3,F51S,disrupting interaction strength
4,K52S,increasing interaction strength
5,D64S,decreasing interaction strength
6,K67S,disrupting interaction strength
7,K69S,disrupting interaction strength
8,S76E,increasing interaction strength
9,F114S,disrupting interaction strength
10,D115S,disrupting interaction strength
11,P117S,disrupting interaction strength
12,F119S,disrupting interaction strength
